{"source": "patent US20040208877A1", "key": {"[1]": {"molecular_target": "PSGL-1 (P-Selectin Glycoprotein Ligand-1) (human) (UniProt Q14242)", "sequence (Q14242 42-412)": "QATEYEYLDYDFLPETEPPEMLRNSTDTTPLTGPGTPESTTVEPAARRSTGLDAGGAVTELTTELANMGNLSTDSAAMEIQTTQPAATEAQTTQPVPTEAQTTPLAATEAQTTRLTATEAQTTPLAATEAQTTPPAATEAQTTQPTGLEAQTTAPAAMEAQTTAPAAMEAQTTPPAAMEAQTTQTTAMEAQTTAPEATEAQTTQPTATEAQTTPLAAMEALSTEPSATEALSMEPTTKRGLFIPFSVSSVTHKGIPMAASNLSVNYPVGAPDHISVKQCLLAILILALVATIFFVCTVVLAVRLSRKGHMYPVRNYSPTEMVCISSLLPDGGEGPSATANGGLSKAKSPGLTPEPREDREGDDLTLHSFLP", "assay": "FACS competition on ML2 cells, 200 ng KPL-1, competitor IgG Y1-PE"}, "[2]": {"molecular_target": "PSGL-1 (P-Selectin Glycoprotein Ligand-1) (human) (UniProt Q14242)", "assay": "FACS, PE-labeled KPL-1 on ML2 cells"}}}
{"substance": "KPL-1 (commercially available murine monoclonal antibody against PSGL1)", "values": [{"measurement": "Median (Geo mean) of IgG Y1-PE binding", "setting": "[1]", "result": 2, "unit": "geo mean"}, {"measurement": "Percent Inhibition", "setting": "[1]", "result": 100, "unit": "%"}, {"measurement": "Median (Geo mean)", "setting": "[2]", "result": 700, "unit": "geo mean"}]}
